Columns and labels:
[1] = target: T1, Human T cell receptor on human primary T cells (human, UniProt P01848 1-140; P01850 1-176); test: cell-based or functional assay
T1 TCR alpha (looked up): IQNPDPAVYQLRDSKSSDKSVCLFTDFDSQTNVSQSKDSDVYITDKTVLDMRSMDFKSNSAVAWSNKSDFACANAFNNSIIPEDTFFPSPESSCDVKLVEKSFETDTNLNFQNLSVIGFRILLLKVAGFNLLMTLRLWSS
T1 TCR beta (looked up): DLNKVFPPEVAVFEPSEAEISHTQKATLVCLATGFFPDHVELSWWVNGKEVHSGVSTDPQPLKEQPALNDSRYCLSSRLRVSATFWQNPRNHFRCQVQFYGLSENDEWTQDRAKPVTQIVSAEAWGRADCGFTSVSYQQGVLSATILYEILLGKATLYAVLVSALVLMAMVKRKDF

[2] = target: Cynomolgus T cell receptor on cynomolgus primary T cells (cynomolgus monkey); test: cell-based or functional assay
[3] = target: T2, Cynomolgus TCR(AEA41865/AEA41866)-zipper protein (cynomolgus monkey); test: SPR, ProteOn XPR36, 25 C, immobilised cyTCR-zipper
T2 construct: also called cyTCR-zipper protein; cynoTCR zipper
T2 TCR alpha: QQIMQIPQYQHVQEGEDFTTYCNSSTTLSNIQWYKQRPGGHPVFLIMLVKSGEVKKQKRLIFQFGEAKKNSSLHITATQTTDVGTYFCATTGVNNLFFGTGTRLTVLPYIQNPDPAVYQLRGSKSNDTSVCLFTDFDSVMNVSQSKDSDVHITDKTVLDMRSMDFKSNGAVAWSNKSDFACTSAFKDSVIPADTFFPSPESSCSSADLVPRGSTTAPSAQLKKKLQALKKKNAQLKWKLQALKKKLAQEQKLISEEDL
T2 TCR beta: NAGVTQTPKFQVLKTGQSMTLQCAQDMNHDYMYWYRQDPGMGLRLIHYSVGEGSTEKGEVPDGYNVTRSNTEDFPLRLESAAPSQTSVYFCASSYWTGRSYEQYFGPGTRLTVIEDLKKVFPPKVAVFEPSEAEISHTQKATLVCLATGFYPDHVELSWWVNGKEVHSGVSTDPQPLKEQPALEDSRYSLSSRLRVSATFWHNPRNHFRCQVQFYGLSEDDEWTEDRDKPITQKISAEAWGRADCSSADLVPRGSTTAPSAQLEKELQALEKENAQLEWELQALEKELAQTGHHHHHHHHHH

[4] = target: human CD33 on cells (human, UniProt P20138 18-364); test: cell-based or functional assay
Target sequence in this assay (P20138 18-364): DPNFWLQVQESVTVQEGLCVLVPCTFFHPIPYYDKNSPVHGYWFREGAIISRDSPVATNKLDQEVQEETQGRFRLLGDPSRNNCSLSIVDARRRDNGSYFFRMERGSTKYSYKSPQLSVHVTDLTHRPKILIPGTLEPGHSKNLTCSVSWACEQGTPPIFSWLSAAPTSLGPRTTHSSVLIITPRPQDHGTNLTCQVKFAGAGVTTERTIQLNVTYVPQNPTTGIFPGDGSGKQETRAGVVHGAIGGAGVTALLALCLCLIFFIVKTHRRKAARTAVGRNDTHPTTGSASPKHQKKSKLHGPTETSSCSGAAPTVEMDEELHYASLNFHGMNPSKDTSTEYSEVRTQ

[5] = target: human CD123 on cells (human, UniProt P26951 19-378); test: cell-based or functional assay
[6] = target: T3, cynomolgus serum albumin (cynomolgus monkey, UniProt A2V9Z4 25-608); test: SPR (ProteOn XPR36, 37°C), albumin immobilised
T3 construct: also called CSA
T3 sequence (A2V9Z4 25-608 limits assumed): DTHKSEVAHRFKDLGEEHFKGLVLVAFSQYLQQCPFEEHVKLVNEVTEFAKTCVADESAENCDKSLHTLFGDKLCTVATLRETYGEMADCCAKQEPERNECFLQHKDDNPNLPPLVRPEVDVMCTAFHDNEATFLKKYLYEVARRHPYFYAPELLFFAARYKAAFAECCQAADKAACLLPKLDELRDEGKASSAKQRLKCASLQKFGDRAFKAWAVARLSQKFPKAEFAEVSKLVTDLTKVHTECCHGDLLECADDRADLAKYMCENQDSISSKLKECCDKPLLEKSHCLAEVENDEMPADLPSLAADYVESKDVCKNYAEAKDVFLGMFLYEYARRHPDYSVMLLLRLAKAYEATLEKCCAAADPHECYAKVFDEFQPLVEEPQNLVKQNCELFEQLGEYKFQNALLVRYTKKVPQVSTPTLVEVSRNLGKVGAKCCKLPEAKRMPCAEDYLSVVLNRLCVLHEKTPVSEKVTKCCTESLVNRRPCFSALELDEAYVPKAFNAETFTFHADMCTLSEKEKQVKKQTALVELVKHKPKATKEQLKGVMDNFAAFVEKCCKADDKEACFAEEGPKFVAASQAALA

[7] = target: T4, human CD33 on cells (human, UniProt P20138 18-364); test: cell-based or functional assay; remark: listed apart in the source
T4 sequence (P20138 18-364): as the sequence (P20138 18-364) above

[8] = target: T5, human CD123 on cells (human, UniProt P26951 19-378); test: cell-based or functional assay; remark: listed apart in the source
[9] = target: cynomolgus CD33 on cells (cynomolgus); test: cell-based or functional assay
[10] = target: cynomolgus CD123 on cells (cynomolgus); test: cell-based or functional assay
[11] = target: T6, human TCR on primary human T cells (human, UniProt P01848 1-140; P01850 1-176); test: cell-based or functional assay
T6 TCR alpha (looked up): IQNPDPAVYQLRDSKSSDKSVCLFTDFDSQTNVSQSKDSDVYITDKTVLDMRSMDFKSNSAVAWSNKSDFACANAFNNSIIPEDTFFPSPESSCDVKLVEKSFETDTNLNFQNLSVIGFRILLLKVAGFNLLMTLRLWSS
T6 TCR beta (looked up): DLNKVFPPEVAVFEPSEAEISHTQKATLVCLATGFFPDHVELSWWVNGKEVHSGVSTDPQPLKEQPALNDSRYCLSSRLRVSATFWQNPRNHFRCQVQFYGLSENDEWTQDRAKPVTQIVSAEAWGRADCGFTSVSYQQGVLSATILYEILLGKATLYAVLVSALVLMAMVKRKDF

[12] = target: cynomolgus TCR on primary cynomolgus T cells (cynomolgus); test: cell-based or functional assay
[13] = target: T7, Cynomolgus TCR(AEA41865/AEA41866)-zipper protein (cynomolgus); test: SPR, ProteOn XPR36, 37 C; TCR-zipper coated on GLC chip
T7 construct: also called cyTCR-zipper; cyTCR(AEA41865)-zipper
T7 TCR alpha: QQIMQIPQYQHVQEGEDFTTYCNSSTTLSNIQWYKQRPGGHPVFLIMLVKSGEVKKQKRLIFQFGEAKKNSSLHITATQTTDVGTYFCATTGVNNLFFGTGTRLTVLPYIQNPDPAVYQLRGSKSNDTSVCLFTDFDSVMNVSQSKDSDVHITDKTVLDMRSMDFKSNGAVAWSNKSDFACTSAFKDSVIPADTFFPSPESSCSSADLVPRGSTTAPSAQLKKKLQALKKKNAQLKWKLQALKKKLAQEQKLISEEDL
T7 TCR beta: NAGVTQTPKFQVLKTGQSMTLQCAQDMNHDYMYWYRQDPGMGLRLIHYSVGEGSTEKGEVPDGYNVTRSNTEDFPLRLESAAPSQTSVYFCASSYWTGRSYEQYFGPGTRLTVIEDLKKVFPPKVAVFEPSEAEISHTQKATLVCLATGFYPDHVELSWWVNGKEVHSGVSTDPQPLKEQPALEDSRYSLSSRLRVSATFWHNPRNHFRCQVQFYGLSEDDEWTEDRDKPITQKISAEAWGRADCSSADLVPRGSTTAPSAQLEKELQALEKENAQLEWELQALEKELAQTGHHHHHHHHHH

[14] = target: T8, huCD33L-Fc (human, UniProt P20138 18-259); test: SPR, ProteOn XPR36, 37 C; CD33L-Fc captured on anti-huIgG (Fc)
T8 construct: also called Human CD33L-Fc; not shown: Fc part, not described (captured by anti-huIgG (Fc))
T8 sequence (P20138 18-259 limits assumed): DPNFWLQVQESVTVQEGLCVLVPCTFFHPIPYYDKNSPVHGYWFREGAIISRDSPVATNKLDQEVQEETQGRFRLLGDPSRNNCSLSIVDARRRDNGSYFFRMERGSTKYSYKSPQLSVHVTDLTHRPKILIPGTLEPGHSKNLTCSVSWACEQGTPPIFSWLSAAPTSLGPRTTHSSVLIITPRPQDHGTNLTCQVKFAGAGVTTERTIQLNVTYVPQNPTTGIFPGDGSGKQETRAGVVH

[15] = target: T9, cyCD33L-Fc (cynomolgus); test: as above
T9 construct: also called Cynomolgus CD33L-Fc

[16] = target: T10, huCD123-Fc (human, UniProt P26951 19-305); test: SPR, ProteOn XPR36, 37 C; CD123-Fc captured on anti-huIgG (Fc)
T10 construct: also called Human CD123-Fc; not shown: Fc part, not described (captured by anti-huIgG (Fc))
T10 sequence: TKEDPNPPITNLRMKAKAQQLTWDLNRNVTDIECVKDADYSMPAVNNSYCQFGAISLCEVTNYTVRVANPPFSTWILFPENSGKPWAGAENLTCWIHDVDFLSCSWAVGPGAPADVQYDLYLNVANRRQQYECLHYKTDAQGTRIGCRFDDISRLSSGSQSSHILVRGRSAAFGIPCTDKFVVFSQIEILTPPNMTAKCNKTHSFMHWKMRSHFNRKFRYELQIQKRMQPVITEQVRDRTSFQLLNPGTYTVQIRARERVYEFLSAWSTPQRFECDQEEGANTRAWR

[17] = target: T11, cyCD123-Fc (cynomolgus); test: as above
T11 construct: also called Cynomolgus CD123-Fc

[18] = target: T12, mouse serum albumin (mouse, UniProt P07724 25-608); test: SPR, ProteOn XPR36, 37 C; albumin immobilised by amine coupling
T12 construct: also called MSA
T12 sequence (P07724 25-608 limits assumed): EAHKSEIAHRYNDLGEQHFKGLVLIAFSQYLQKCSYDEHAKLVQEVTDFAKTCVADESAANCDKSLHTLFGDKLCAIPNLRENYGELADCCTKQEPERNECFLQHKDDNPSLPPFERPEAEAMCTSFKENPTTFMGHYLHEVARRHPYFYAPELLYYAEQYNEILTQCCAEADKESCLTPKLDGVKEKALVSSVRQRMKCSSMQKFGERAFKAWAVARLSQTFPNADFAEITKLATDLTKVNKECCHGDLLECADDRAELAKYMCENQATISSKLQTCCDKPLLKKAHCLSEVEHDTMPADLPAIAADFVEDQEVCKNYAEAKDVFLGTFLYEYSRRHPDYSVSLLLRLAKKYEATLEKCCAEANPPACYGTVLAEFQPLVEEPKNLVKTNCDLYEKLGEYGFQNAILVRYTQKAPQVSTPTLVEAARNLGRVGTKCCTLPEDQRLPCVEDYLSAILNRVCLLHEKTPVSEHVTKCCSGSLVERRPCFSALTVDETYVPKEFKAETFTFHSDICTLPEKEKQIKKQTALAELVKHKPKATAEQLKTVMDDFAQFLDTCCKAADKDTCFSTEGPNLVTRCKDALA

[19] = target: T13, cynomolgus serum albumin (cynomolgus); test: as above
T13 construct: also called CSA
T13 sequence (A2V9Z4 25-608): as the sequence (A2V9Z4 25-608 limits assumed) above

[20] = target: T14, human serum albumin (human, UniProt P02768 25-609); test: as above
T14 construct: also called HSA

[21] = target: T6, human TCR on primary human T cells; test: flow cytometry competition on primary human T cells; competitor FLAG3His6 tagged monovalent TCR ISVD; global (weighted) IC50, n = 4
[22] = target: T15, cynomolgus TCR on primary cynomolgus T cells (cynomolgus); test: flow cytometry competition on primary cynomolgus T cells; competitor FLAG3His6 tagged monovalent TCR ISVD; global (weighted) IC50, n = 7
T15 construct: whole, on cells; also called cyno TCRαβ

[23] = target: T5, human CD123 on cells; test: flow cytometry on CHO Flp-In huCD123 cells; by paragraph 678 with 30 uM HSA, anti-VHH mAb ABH0077 + APC goat anti-mouse; MFI (mean APC) [panel CHO Flp-In huCD123 cells]
[24] = target: T4, human CD33 on cells; test: flow cytometry on CHO Flp-In huCD33-long cells; by paragraph 678 with 30 uM HSA, anti-VHH mAb ABH0077 + APC goat anti-mouse; MFI (mean APC) [panel CHO Flp-In huCD33-long cells]

B1: T017000637 (bispecific antibody)
chain: DVQLVESGGGLVQAGGSLRLSCAASGITSKINDMGWYRQTPGNYREWVASITATGTTNYRDSVKGRFTISRDNAKSTVYLQMNSLKPEDTTVYYCNTFPPISNFWGQGTLVTVSSGGGGSGGGGSGGGGSGGGGSGGGGSGGGGSGGGGSEVQLVESGGGVVQPGGSLRLSCVASWDVHQINFYGWYRQAPGKEREKVAHISIGDQTDYADSAKGRFTISRDESKNTVYLQMNSLRPEDTALYYCRALSRIWPYDYWGQGTLVTVSSA
notes: also called A0110056A10(E1D)-35GS-T0170056G05(L11V, G26W, K30Q, L34Y, M77T, K83R, V89L, F91Y, M95L, Y99W)-A
- % Lysis, T cell mediated MOLM-13 cell killing, human primary T cells, E:T 10:1 [1]: 0%
- % Lysis, T cell mediated MOLM-13 cell killing, cynomolgus primary T cells, E:T 10:1 [2]: 17%
- binding result [3]: no binding (tested: injected between 4.1 nM and 1000 nM)

B2: TCRαβ-CD33-CD123 multispecific ISVD construct (other)
chain: DVQLVESGGGVVQPGGSLRLSCVASGYVHKINFYGWYRQAPGKEREKVAHISIGDQTDYADSAKGRFTISRDESKNTVYLQMNSLRPEDTAAYYCRALSRIWPYDYWGQGTLVTVSSGGGGSGGGSEVQLVESGGGVVQPGGSLRLSCAASGGVFRLNSMGWFRQAPGKQRELVAIITSDGDTNYADSVKGRFTISRDQAKNTVYLQMNSLRPEDTALYYCQITYSTSSYSFPINTWGQGTLVTVSSGGGGSGGGSEVQLVESGGGVVQPGGSLRLSCAASGVIFSGNVMGWYRRQAPGKEREWVAAIAEGGSILYRDSVKGRFTISRDNAKNTVYLQMNSLRPEDTALYYCNSHPPVLPYWGQGTLVTVSSGGGGSGGGGSGGGGSGGGGSEVQLVESGGGVVQPGGSLRLSCAASGFTFRSFGMSWVRQAPGKGPEWVSSISGSGSDTLYADSVKGRFTISRDNSKNTLYLQMNSLRPEDTALYYCTIGGSLSRSSQGTLVTVSSA
notes: also called A025001562; CD123-CD33-TCR multispecific ISVD construct
- Global IC50, impedance-based (xCELLigence) human T cell mediated killing of CHO hu CD33 cells [4]: 0.054 nM
- Global IC50, impedance-based (xCELLigence) human T cell mediated killing of CHO hu CD123 cells [5]: 0.025 nM
- binding result [6]: binds

B3: TCRαβ-CD33-CD123 multispecific ISVD construct (SEQ ID NO: 460) (other)
chain: DVQLVESGGGVVQPGGSLRLSCVASGYVHKINFYGWYRQAPGKEREKVAHISIGDQTDYADSAKGRFTISRDESKNTVYLQMNSLRPEDTAAYYCRALSRIWPYDYWGQGTLVTVSSGGGGSGGGSEVQLVESGGGVVQPGGSLRLSCAASGGVFRLNSMGWFRQAPGKQRELVAIITSDGDTNYADSVKGRFTISRDQAKNTVYLQMNSLRPEDTALYYCQITYSTSSYSFPINTWGQGTLVTVSSGGGGSGGGSEVQLVESGGGVVQPGGSLRLSCAASGVIFSGNVMGWYRRQAPGKEREWVAAIAEGGSILYRDSVKGRFTISRDNAKNTVYLQMNSLRPEDTALYYCNSHPPVLPYWGQGTLVTVSSGGGGSGGGGSGGGGSGGGGSEVQLVESGGGVVQPGGSLRLSCAASGFTFRSFGMSWVRQAPGKGPEWVSSISGSGSDTLYADSVKGRFTISRDNSKNTLYLQMNSLRPEDTALYYCTIGGSLSRSSQGTLVTVSSA
notes: also called A025001562; TCR-CD33-CD123
- Global IC50 (M), impedance based human T cell mediated CHO hu CD33 cell killing, E:T 15:1, 50 uM HSA (n = 4) [7]: 1.1e-10 M
- Global IC50 (M), impedance based human T cell mediated CHO hu CD123 cell killing, E:T 15:1, 50 uM HSA (n = 7) [8]: 4.4e-11 M
- IC50 (M), impedance based cynomolgus T cell mediated CHO Flp-In cynoCD33 cell killing, E:T 15:1, 50 uM HSA [9]: 6.2e-12 M
- IC50 (M), impedance based cynomolgus T cell mediated CHO Flp-In cynoCD123 cell killing, E:T 15:1, 50 uM HSA [10]: 1.4e-12 M
- Global EC50 (M), flow cytometry human T cell mediated MOLM-13 cell killing, E:T 10:1, 50 uM HSA (n = 13) [11]: 1.8e-11 M
- EC50 (M), cynomolgus T cell mediated MOLM-13 cell killing, E:T 10:1 [12]: 1.36e-11 M
- Kd [13]: 6.7 nM
- Kd [14]: 7.6 nM
- Kd [15]: 6.9 nM
- Kd [16]: 0.59 nM
- Kd [17]: 2 nM
- Kd [18]: < 500 nM
- Kd [19]: 7.9 nM
- Kd [20]: 9.7 nM
- IC50 [21]: 218 nM
- IC50 [22]: 729 nM
- EC50 (read off the curve) [23]: ~10 nM
- EC50 (read off the curve) [24]: ~70 nM

Source: patent publication US20240092919A1 (Ablynx, published 2024)
